IntAct's records for PubMed 19632184

B1: Kinesin-like protein KIF2C (Homo sapiens), Q99661 (parent)
chain: MAMDSSLQARLFPGLAIKIQRSNGLIHSANVRTVNLEKSCVSVEWAEGGATKGKEIDFDDVAAINPELLQLLPLHPKDNLPLQENVTIQKQKRRSVNSKIPAPKESLRSRSTRMSTVSELRITAQENDMEVELPAAANSRKQFSVPPAPTRPSCPAVAEIPLRMVSEEMEEQVHSIRGSSSANPVNSVRRKSCLVKEVEKMKNKREEKKAQNSEMRMKRAQEYDSSFPNWEFARMIKEFRATLECHPLTMTDPIEEHRICVCVRKRPLNKQELAKKEIDVISIPSKCLLLVHEPKLKVDLTKYLENQAFCFDFAFDETASNEVVYRFTARPLVQTIFEGGKATCFAYGQTGSGKTHTMGGDLSGKAQNASKGIYAMASRDVFLLKNQPCYRKLGLEVYVTFFEIYNGKLFDLLNKKAKLRVLEDGKQQVQVVGLQEHLVNSADDVIKMIDMGSACRTSGQTFANSNSSRSHACFQIILRAKGRMHGKFSLVDLAGNERGADTSSADRQTRMEGAEINKSLLALKECIRALGQNKAHTPFRESKLTQVLRDSFIGENSRTCMIATISPGISSCEYTLNTLRYADRVKELSPHSGPSGEQLIQMETEEMEACSNGALIPGNLSKEEEELSSQMSSFNEAMTQIRELEEKAMEELKEIIQQGPDWLELSEMTEQPDYDLETFVNKAESALAQQAKHFSALRDVIKALRLAMQLEEQASRQISSKKRPQ

Variants of: B1
Conditions: with mare1_human MAPRE1, Q15691
Sequence of mare1_human MAPRE1, Q15691 (Q15691 whole entry): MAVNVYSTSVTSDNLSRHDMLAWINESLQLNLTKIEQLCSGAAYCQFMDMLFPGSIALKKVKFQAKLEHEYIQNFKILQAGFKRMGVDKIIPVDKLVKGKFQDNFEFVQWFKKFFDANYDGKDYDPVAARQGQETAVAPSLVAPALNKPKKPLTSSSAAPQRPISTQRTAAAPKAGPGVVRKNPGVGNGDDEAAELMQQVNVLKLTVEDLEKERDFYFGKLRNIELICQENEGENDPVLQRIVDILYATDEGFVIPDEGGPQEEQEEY
In the case of I100N;P101N, the “effect of a mutation on the interaction” value is reported as “decreasing interaction”.
